The values below are quoted from earlier work in PMC5493979.

The data set has as its target LRAT (UniProt O95237).
Chain of UniProt O95237 (O95237 whole entry): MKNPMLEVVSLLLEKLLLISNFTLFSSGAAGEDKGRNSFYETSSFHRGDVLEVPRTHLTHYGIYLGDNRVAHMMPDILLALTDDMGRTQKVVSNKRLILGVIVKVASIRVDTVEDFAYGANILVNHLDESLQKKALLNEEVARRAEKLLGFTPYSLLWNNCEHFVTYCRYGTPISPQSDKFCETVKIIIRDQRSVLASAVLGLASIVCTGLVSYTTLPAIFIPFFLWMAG

For the substance apo-CRBP1 (from UniProt P09455), the Ki was 200 nM.

In general, Ki refers to a measure of affinity in units of concentration, obtained from inhibition or displacement.
